Experimental data: US20060093670A1, “Sustained-release composition process for producing the same and preparation thereof” (priority 2002, published 2006)

Columns and labels:
[1] = prior-art two-component apatite particles; cited from earlier work
[2] = IFN α blood level after subcutaneous administration of IFN α-HAp preparation (Example 2); type: in vivo, ddy mouse; settings: IFN α with HSA, chondroitin sulfate and Zn(CH3COO)2 in HAp sintered at 180° C., 4 hours and 1 to 10 days, ELISA, FIG. 2
Procedure: 0.854 ml of 225 μg/ml IFN α (interferon α, Sumitomo Pharmaceuticals) and 1.2 ml of 20 mg/ml HSA were mixed to prepare a protein-mixed solution. 0.856 ml of the protein-mixed solution was mixed with 200 mg of HAp sintered at 180° C., and the mixture was stirred to entrap a protein in HAp. 0.05 ml of 20 mg/ml chondroitin sulfate (CS, from Wako), 0.074 ml of H2O, and 0.02 ml of 1 M Zn(CH3COO)2 were sequentially added thereto. The mixture was centrifuged at 15,000 rpm for five minutes. 2 ml of a 20 mM Zn(CH3COO)2/5% mannitol solution was added to the deposit to prepare a sample.
As a control, 0.644 ml of H2O and 0.5 ml of 20% mannitol were added to 0.856 ml of an IFN α-containing protein-mixed solution to prepare an IFN α (free) solution.
(§1) 0.5 ml of the sample prepared above was subcutaneously administered to an eight-week-old male ddy mouse (weight: 33 to 40 g, SLC, Japan). Four hours and one to ten days after the administration, blood was collected from the orbit of the mouse. The IFN α concentration in this blood was determined using an ELISA kit (Biosource).

[3] = Percent elution of IFN entrapped onto HAP in PBS containing 20% FCS; type: physicochemical; settings: 37° C., 16 hours
Procedure: 45 mg of porous hydroxyapatite (HAP) was accurately weighed. 30 μg of IFN from a 2.4 mg/ml interferon a (IFN) solution was added thereto, and the mixture was allowed to stand for 10 minutes. […] This dispersion was washed by addition of 1.5 ml of water. When IFN in the washed solution was quantitatively determined, IFN was not detected. Specifically, all IFN was confirmed to be entrapped on HAP. In this manner, a microparticle preparation on which IFN as a protein was entrapped could be obtained without using an organic solvent. After the washing, 20 ml of a PBS solution containing FCS in an amount of 20% was added to the resulting powder, and the mixture was shaken at 37° C. for 16 hours. IFN eluted in the supernatant liquid was quantitatively determined to calculate the percent elution.

[4] = Effect of Zn concentration on sustained release of IFN-HAp preparation (IFN α blood level, Example 3); type: in vivo, ddy mouse; settings: IFN α/HSA/CS in HAp, freeze-dried, subcutaneous, 4 hours and 1 to 7 days, FIG. 3
Procedure: 0.06 ml of 0.937 mg/ml IFN α, 0.3 ml of 20 mg/ml HSA, 0.03 ml of 20 mg/ml CS, and 1.22 ml of H2O were added to prepare a solution. 200 mg of HAp sintered at 180° C. was added on this solution. A protein was entrapped in HAp by stirring, and then 10 ml of H2O was added. The mixture was lightly stirred and centrifuged at 3,000 rpm for five minutes.
The deposit was freeze-dried and divided in two. 1 ml of a 20 mM Zn(CH3COO)2/5% mannitol solution was added to one division, while 1 ml of a 5 mM Zn(CH3COO)2/5% mannitol solution was added to the other division.
As a control, 0.015 ml of 0.937 mg/ml IFN α, 0.075 ml of 20 mg/ml HSA, 0.66 ml of H2O and 0.25 ml of 20% mannitol were added to prepare an IFN α (free) solution.
as §1, with “0.7” for “0.5”, “a seven-week-old” for “an eight-week-old”, “(weight: 31 to” for “(weight:”, “33” for “33 to 40”, “seven” for “ten”

[5] = Entrapment of IFN on HAP (IFN in the washed solution); type: physicochemical; settings: 30 μg IFN on 45 mg HAP, 20 mM zinc acetate, washed with 1.5 ml water
Procedure: 45 mg of porous hydroxyapatite (HAP) was accurately weighed. 30 μg of IFN from a 2.4 mg/ml interferon a (IFN) solution was added thereto, and the mixture was allowed to stand for 10 minutes. Then, 1 ml of a 20 mM/1 ml zinc acetate solution was added thereto, and the mixture was shaken for 30 minutes. This dispersion was washed by addition of 1.5 ml of water. When IFN in the washed solution was quantitatively determined, IFN was not detected. Specifically, all IFN was confirmed to be entrapped on HAP. In this manner, a microparticle preparation on which IFN as a protein was entrapped could be obtained without using an organic solvent. After the washing, 20 ml of a PBS solution containing FCS in an amount of 20% was added to the resulting powder, and the mixture was shaken at 37° C. for 16 hours. IFN eluted in the supernatant liquid was quantitatively determined to calculate the percent elution.

[6] = Adsorption of G-CSF on hydroxyapatite preliminarily treated with zinc acetate; type: physicochemical; settings: for Amount of adsorbed G-CSF / Amount of free G-CSF: 10 mg hydroxyapatite bound with zinc
Procedure: Then, the following procedure was conducted to attempt adsorption of zinc on hydroxyapatite particles and adsorption of G-CSF on the particles. 10 mg of hydroxyapatite was suspended in 200 μl of zinc acetate (5 mg/ml). The suspension was allowed to stand for 10 minutes at room temperature, and then centrifuged at 10,000 rpm for 10 minutes to discard the supernatant liquid. The precipitate was suspended in 500 μl of purified water. The suspension was allowed to stand for 10 minutes at room temperature, and then centrifuged at 10,000 rpm for 10 minutes to discard the supernatant liquid. After the sediment was suspended and centrifuged again, the supernatant liquid was discarded. This precipitate was suspended in 0.5 ml of a 200 μg/ml or 1,000 μg/ml G-CSF solution. The suspension was allowed to stand for 10 minutes, and then centrifuged at 10,000 rpm for 10 minutes. The amount of G-CSF in the supernatant liquid was determined by an ELISA method. Further, G-CSF entrapped in hydroxyapatite was eluted from the precipitate using 0.1 M EDTA and a 1% HAS solution, and the eluate was centrifuged. Then, the G-CSF concentration in the supernatant liquid was determined by an ELISA method to determine the amount of G-CSF adsorbed on hydroxyapatite.

[7] = Adsorption of G-CSF on hydroxyapatite particles without zinc; type: physicochemical; settings: 40 mg hydroxyapatite particles, 100 μl of G-CSF solution (100 μg/ml), no zinc; eluted with pH 4 acetic acid buffer; ELISA
Procedure: 40 mg of hydroxyapatite particles were immersed in 100 μl of a G-CSF solution (100 μg/ml) for 10 minutes. Then, 900 μl of purified water was added, and the mixture was stirred and centrifuged. Then, the supernatant liquid was discarded. Purified water was added to the precipitate again, and the mixture was stirred and centrifuged to remove the excessive G-CSF.
The precipitate was suspended in a pH 4 acetic acid buffer to elute G-CSF. After centrifugation, the amount of G-CSF in the supernatant liquid was determined by ELISA to determine the amount of G-CSF adsorbed. Almost no adsorption was observed (0.1 μg or less).

[8] = In vitro release test of G-CSF from HAp in PBS, embolized versus not embolized; type: physicochemical; settings: embolized (HSA, CaCl2, then Na2CO3) versus not embolized, room temperature, ELISA, FIG. 4
Procedure: 100 μl of a preliminarily mixed solution of G-CSF (3 μg/ml), HSA (30 μg/ml), and CaCl2 (280 mg/ml) was added to 50 mg of HAp sintered at 180° C. The mixture was stirred using a vortex mixer for three minutes, allowed to stand for five minutes, and freeze-dried. 100 μl of a 220 mg/ml Na2CO3 solution was added to the resulting particles, and the mixture was stirred using a vortex mixer for three minutes. After further addition of 100 μl of water, the mixture was lightly stirred. A part of the mixture was collected for ELISA determination. The remaining part was centrifuged at 1,000 rpm for three minutes to collect the supernatant liquid. 2 ml of PBS was added to the deposit, and the mixture was lightly shaken at room temperature. After 0 hour and 0.5 hour, respectively, the supernatant liquid was collected. Further, 10 ml of PBS was added to the deposit, and the mixture was shaken at room temperature. After 0 hour and 0.5 hour, respectively, the supernatant liquid was collected. The final deposit and the supernatant liquids obtained on the way were subjected to determination using an ELISA kit (IBL). The final deposit was dissolved in 1% BSA/Tris-HCl (pH 5) and used for the ELISA determination. The results are shown in FIG. 4-A. 200 μl of a 1.5 μg/ml G-CSF solution was added to 50 mg of HAp to fill the pores, and 2 ml of PBS was added further. The same release test was conducted.

[9] = PC-BDNF blood level after subcutaneous administration of PC-BDNF-HAp preparation; type: in vivo, ddy mouse; settings: PC-BDNF in HAp sintered at 180° C. with HSA and 5 mM Zn(CH3COO)2/5% mannitol, 2 hours to 4 days, ELISA, FIG. 1
Procedure: 66 μl of a 4.54 mg/ml PC-BDNF (lecithinized BDNF) solution was added to 20 mg of porous hydroxyapatite microparticles (HAp) sintered at 180° C., and the mixture was stirred using a vortex mixer for one minute. 434 μl of a 0.1% HSA solution was added thereto, and the mixture was stirred again for one minute. The mixture was allowed to stand for three minutes, and then centrifuged at 1,000 rpm for three minutes to remove the supernatant liquid. 500 μl of a 5 mM Zn(CH3COO)2/5% mannitol solution was added to the deposit, and the mixture was stirred to prepare a sample. As a control, a sample in which 66 μl of a 4.54 mg/ml PC-BDNF solution was mixed with 434 μl of 5% mannitol was also prepared. 500 μl of each sample was subcutaneously administered to a six-week-old male ddy mouse. Two hours, seven hours, 17 hours, one day, two days, and four days after the administration, blood was collected from the orbit to determine the PC-BDNF blood level using an ELISA kit (Promega).

hGH: human growth hormone, on prior-art apatite particles
Amount of hGH adsorbed on the apatite particles (entrapped amount) [1]: ≤ 1%

IFN α
IFN α concentration in blood, sustained-release effect [2]: excellent sustained-release effect | Eluted IFN (%) ([3]; Zinc acetate 0 mM): 92% | Eluted IFN (%) ([3]; Zinc acetate 20 mM): 87% | IFN α blood level ([4]; zinc 5 mM): sufficiently increased, but was reduced comparatively rapidly | IFN α blood level ([4]; zinc 20 mM): not sufficiently increased, but IFN α was released slowly for a long time | IFN in the washed solution [5]: not detected

B1: G-CSF: G-CSF protein loaded into or adsorbed on hydroxyapatite microparticles (protein, UniProt P09919 31-207, looked up)
Granulocyte …: TPLGPASSLPQSFLLKCLEQVRKIQGDGAALQEKLVSECATYKLCHPEELVLLGHSLGIPWAPLSSCPSQALQLAGCLSQLHSGLFLYQGLLQALEGISPELGPTLDTLQLDVADFATTIWQQMEELGMAPALQPTQGAMPAFASAFQRRAGGVLVASHLQSFLEVSYRVLRHLAQP
modifications: adsorbed on hydroxyapatite microparticles
Amount of adsorbed G-CSF ([6]; total amount of G-CSF 100 μg): 86.4 µg | Amount of free G-CSF ([6]; total amount of G-CSF 100 μg): 0.4 µg | Amount of adsorbed G-CSF ([6]; total amount of G-CSF 500 μg): 400.0 µg | Amount of free G-CSF ([6]; total amount of G-CSF 500 μg): 90.0 µg | Maximum amount of G-CSF adsorbed ([6]; on 10 mg of hydroxyapatite): 400 µg | Amount of G-CSF adsorbed [7]: ≤ 0.1 µg | Release of G-CSF from HAp [8]: release was remarkably suppressed

B2: PC-BDNF: lecithinized BDNF; tested entrapped in HAp with HSA and zinc acetate (PC-BDNF-HAp preparation) (conjugate, UniProt P23560 19-247, looked up)
Neurotrophic factor BDNF …: APMKEANIRGQGGLAYPGVRTHGTLESVNGPKAGSRGLTSLADTFEHVIEELLDEDQKVRPNEENNKDADLYTSRVMLSSQVPLEPPLLFLLEEYKNYLDAANMSMRVRRHSDPARRGELSVCDSISEWVTAADKKTAVDMSGGTVTVLEKVPVSKGQLKQYFYETKCNPMGYTKEGCRGIDKRHWNSQCRTTQSYVRALTMDSKKRIGWRFIRIDTSCVCTLTIKRGR
modifications: lecithinized; entrapped in hydroxyapatite
PC-BDNF blood level, sustained-release effect [9]: excellent sustained-release effect
